# US12723255B2, “Herbicide tolerance genes and methods of use thereof” (priority 2014, dated 2026)
# Tests used:
# [1] = assay type: biochemical
# Description: To analyze these engineered proteins for activity in higher temperatures, the in vitro enzyme assay in Example 1 was modified to specify pre-heating all of the assay components to the desired temperature for 5 minutes before combining the components and then maintaining the reaction at the desired temperature for the duration of the reaction. To normalize the assay measurements, quizalofop-P was used as the substrate for the reaction and enzyme activity was normalized based on the 25° C. readings. Using these parameters, the temperature at which the enzyme activity was half of maximum (T1/2) was calculated. The T1/2 for MON-HT55 was calculated to be 29° C., and the T1/2 for wild-type RdpA was calculated to be 38° C. (FIG. 2A).
# Enzyme activity over a range of temperatures was analyzed in-depth for MON-HT1, MON-HT2, MON-HT7, and MON-HT8. These assays were conducted as described above. Quizalofop-P or 2,4-D was used as the substrate for these reactions and activity was normalized based on the activity of the wild-type enzyme at 25° C. The activity curves obtained are presented in FIG. 2B (with quizalofop-P as the substrate) and FIG. 2C (with 2,4-D as the substrate). Using quizalofop-P as the substrate, MON-HT55 was the most temperature sensitive, with a T1/2 of 29° C. […] MON-HTI was slightly less temperature sensitive, with a T1/2 about 1° C. higher than the wild-type enzyme.
# [2] = tested on: mRNA transcribed from the transgene cassette; experiment: Quantigene analysis of transgene mRNA expression in leaf samples; conditions: normalized to maize housekeeping genes, average of eight samples
# Source text: Leaf samples were collected from the plants containing transgene cassettes encoding MON-HT1, MON-HT2, and MON-HT8 with and without CTP sequences to determine expression of the mRNA transcribed from the transgene cassette encoding the engineered proteins. Quantigene® analysis was done on the leaf sample extracts to determine mRNA expression of the transgene cassette. For these assays, the probe was to the common 3′-UTR sequence present in each expression cassette used to generate the transgenic plants. Relative expression was calculated by normalizing to maize housekeeping genes. A leaf sample was collected from each of eight plants for each construct configuration used to make the transgenic plants, and the reported relative mRNA expression data is an average of the eight samples with standard error.
# transgenic maize plants = experiment: trait efficacy field trials with homozygous inbred plants, CTP evaluation; assay type: in vivo; conditions: crop injury percentage
# Source text: To evaluate different chloroplast targeting peptides (CTP), plant transformation vectors were constructed, each comprising a recombinant DNA molecule optimized for monocot expression and encoding MON-HTI (SEQ ID NO: 16), MON-HT2 (SEQ ID NO:20), and MON-HT8 (SEQ ID NO:39), MON-HT9 (SEQ ID NO:42), or MON-HT10 (SEQ ID NO:45). The vectors were created using the same combination of promoter, leader, intron, and 3′-UTR, but with one of three separate CTPs (A, B, or C) or without a CTP operably linked to the protein-coding sequence. The DNA constructs were used to transform immature maize (LH244) embryos using Agrobacterium tumifaciens and standard methods known in the art. Regenerated RO transgenic plantlets were grown in the green house. The R0 plants were selfed to generate R1 homozygous seed. The R0 plants were also used as the male to cross with inbred plants containing maize event MON89034 to generate segregating F1 hybrid seed for trait efficacy field trials.
# Separate trait efficacy field trials for quizalofop-P and 2,4-D were conducted at two locations each with the homozygous inbred transgenic plants (R2 or R4 generation). In these field trials, one of two herbicide treatments was used: (1) quizalofop-P (Assure II) at 0.16 lb ai/acre (2×) plus 0.25% v/v non-ionic surfactant (NIS) applied at V4 growth stage followed by the same at V8 growth stage; or (2) 2,4-D amine at 2 lb ae/acre (2×) plus 0.25% v/v non-ionic surfactant (NIS) applied to V4 followed by V8. Injury ratings (crop injury percentage at V4 (CIPV4) or V8 (CIPV8)) were taken 10 to 14 days after the V4 and V8 applications. Error was calculated using LSD (0.05).
# F1 hybrid maize plants = experiment: trait efficacy field trial, 2,4-D pressure screening, F1 hybrid; assay type: in vivo; conditions: crop injury percentage; for 4X 2,4-D CIPV4 / 4X 2,4-D CIPV8: 4 lb ae/acre at VE-V2, V4, V8; for 8X 2,4-D CIPV4 / 8X 2,4-D CIPV8: 8 lb ae/acre at VE-V2, V4, V8; for 16X 2,4-D CIPV4 / 16X 2,4-D CIPV8: 16 lb ae/acre at VE-V2, V4, V8
# Description: Separate trait efficacy field trials for quizalofop-P and 2,4-D pressure screening were conducted at one location each with F1 hybrid transgenic plants produced by crossing an inbred plant containing maize event MON89034 with an R1 plant containing MON-HT1, MON-HT2, MON-HT8, MON-HT9, and MON-HT10 with and without operably linked CTP sequences. Transgenic F1 hybrid plants containing maize events NK603×MON89034 were used for comparison as a control.
# Three herbicide treatments were used in the trait efficacy field trial for 2,4-D tolerance: (1) 2,4-D amine at 4 lb ac/acre (4×) plus 0.25% v/v NIS applied to VE-V2 followed by V4 followed by V8; (2) 2,4-D amine at 8 lb ac/acre (8×) plus 0.25% v/v NIS applied to VE-V2 followed by V4followed by V8 maize; or (3) 2,4-D amine at 16 lb ac/acre (16×) plus 0.25% v/v NIS applied to VE-V2 followed by V4 followed by V8. Plots were visually rated as above.
# The injury rating for the control plants after all 2,4-D applications ranged from 80% to 96.25%. At the highest rate of 2,4-D (16×) applied through V8, the plants containing MON-HT1 or MON-HT2 operably linked to any of the three CTPs (A, B, or C) had better tolerance than plants containing MON-HT1 or MON-HT2 not operably linked to a CTP. Plants containing MON-HT1, MON-HT2, or MON-HT8 with or without an operably linked CTP had better tolerance to 2,4-D at all applications tested compared to plants containing either MON-HT9 or MON-HT10 with an operably linked ‘A’ CTP. Over the range of 2,4-D applications the relative ranking of tolerance was: plants containing MON-HT1 had better tolerance than plants containing MON-HT2 which were in turn better than plants containing MON-HT8. […] Error was calculated using LSD (0.05).
# [3] = CTP B, 0.16 lb ai/acre at V4, V8
# [4] = CTP C, 0.16 lb ai/acre at V4, V8
molecule,measurement,setting,value
"MON-HT8: engineered oxygenase protein, amino acid sequence SEQ ID NO:37 (protein) MHAALTPLTNKYRFIDVQPLTGVLGAEITGVDLREPLDDSTWNEILDAFHTYQVIYFPGQAITNEQHIAFSRRFGPVDPVPILKSIEGYPEVQMIRREANESGRVIGDDWHTDSTFLDAPPAAVVMRAIEVPEYGGDTGFLSMYSAWETLSPTMQATIEGLNVVHSATKVFGSLYQATNWRFSNTSVKVMDVDAGDRETVHPLVVTHPVTGRRALYCNQVYCQKIQGMTDAESKSLLQFLYEHATKFDFTCRVRWKKDQVLVWDNLCTMHRSVPDYGNAFRYLTRTTVAGDKPSR","T1/2, temperature at which the enzyme activity was half of maximum",[1],41 °C
same,temperature sensitivity compared with the wild-type enzyme,"[1]; substrate 2,4-D, lower T1/2 than wild-type",slightly more temperature sensitive
same,Relative Expression,[2]; CTP A,8.06
same,Relative Expression,[2]; CTP B,7.62
same,Relative Expression,[2]; CTP C,4.87
same,2X Quizalofop-P CIPV4,"transgenic maize plants; CTP A, 0.16 lb ai/acre at V4, V8, LSD (0.05) = 1.45",0
same,2X Quizalofop-P CIPV8,"transgenic maize plants; CTP A, 0.16 lb ai/acre at V4, V8, LSD (0.05) = 2.2",1.25
same,"2X 2,4-D CIPV4","transgenic maize plants; CTP A, 2 lb ae/acre at V4, V8, LSD (0.05) = 0.95",1.75
same,"2X 2,4-D CIPV8","transgenic maize plants; CTP A, 2 lb ae/acre at V4, V8, LSD (0.05) = 1.6",1.25
same,2X Quizalofop-P CIPV4,transgenic maize plants; [3],0.75
same,2X Quizalofop-P CIPV8,transgenic maize plants; [3],2.5
same,"2X 2,4-D CIPV4","transgenic maize plants; CTP B, 2 lb ae/acre at V4, V8",0
same,"2X 2,4-D CIPV8","transgenic maize plants; CTP B, 2 lb ae/acre at V4, V8",1.25
same,2X Quizalofop-P CIPV4,transgenic maize plants; [4],0
same,2X Quizalofop-P CIPV8,transgenic maize plants; [4],1.25
same,"2X 2,4-D CIPV4","transgenic maize plants; CTP C, 2 lb ae/acre at V4, V8",1.25
same,"2X 2,4-D CIPV8","transgenic maize plants; CTP C, 2 lb ae/acre at V4, V8",0
same,"4X 2,4-D CIPV4",F1 hybrid maize plants; CTP A,7.5
same,"4X 2,4-D CIPV8",F1 hybrid maize plants; CTP A,5
same,"8X 2,4-D CIPV4",F1 hybrid maize plants; CTP A,10
same,"8X 2,4-D CIPV8",F1 hybrid maize plants; CTP A,12.5
same,"16X 2,4-D CIPV4",F1 hybrid maize plants; CTP A,15
same,"16X 2,4-D CIPV8",F1 hybrid maize plants; CTP A,30
same,"4X 2,4-D CIPV4",F1 hybrid maize plants; CTP B,5
same,"4X 2,4-D CIPV8",F1 hybrid maize plants; CTP B,7.5
same,"8X 2,4-D CIPV4",F1 hybrid maize plants; CTP B,10
same,"8X 2,4-D CIPV8",F1 hybrid maize plants; CTP B,27.5
same,"16X 2,4-D CIPV4",F1 hybrid maize plants; CTP B,10
same,"16X 2,4-D CIPV8",F1 hybrid maize plants; CTP B,20
same,"4X 2,4-D CIPV4",F1 hybrid maize plants; CTP C,10
same,"4X 2,4-D CIPV8",F1 hybrid maize plants; CTP C,7.5
same,"8X 2,4-D CIPV4",F1 hybrid maize plants; CTP C,10
same,"8X 2,4-D CIPV8",F1 hybrid maize plants; CTP C,17.5
same,"16X 2,4-D CIPV4",F1 hybrid maize plants; CTP C,17.5
same,"16X 2,4-D CIPV8",F1 hybrid maize plants; CTP C,25
